This note sets out measurements from doi:10.1101/2024.12.27.630498 (bioRxiv, 2024).

The data set concerns the molecule itself. Kind of data set: cryo-EM structure.

B1: Arabidopsis thaliana AKT1 (Arabidopsis K+ transporter 1), construct for the structure of AKT1 alone (natural protein)
chain: not shown
For orientation: stoichiometry N means the number of molecules, sites or subunits per partner or assembly. For B1, the “stoichiometry N” value is 4.
